# Laboratory results: patent publication US20050148511A1
# Tests used:
# [1] = target: FGFR3IIIc expressed on FDCP cells; experiment: cell-based or functional assay
# [2] = target: FGFR1 expressed on FDCP cells; experiment: cell-based or functional assay
substance,measurement,setting,value
"FGF2(3,5Q)-N111G (ligand)","EC50 (effective concentration), mitogenicity on FGFR-transfected FDCP cells",[1],0.3 to 0.65 ng/mL
same,"EC50 (effective concentration), mitogenicity on FGFR-transfected FDCP cells",[2],0.35 to 1 ng/mL
wild type FGF-2 (from UniProt P09038 1-155) (ligand),"EC50 (effective concentration), mitogenicity on FGFR-transfected FDCP cells",[1],4.2 ng/mL
same,"EC50 (effective concentration), mitogenicity on FGFR-transfected FDCP cells",[2],2.65 ng/mL
